One block for each molecule: values may come before it.
Assays:
[1] = molecular target: bHLH-PAS domain of AaMet fused to the GAL4 DNA-binding domain (Aedes aegypti) (UniProt Q58FS0); experiment: two-hybrid
[2] = molecular target: T1, Methoprene-tolerant (Met) protein, AaMet (Aedes aegypti, UniProt Q58FS0); experiment: [3H]-JH-III dextran-coated charcoal radioligand binding, Scatchard
T1 sequence (Q58FS0 1-597): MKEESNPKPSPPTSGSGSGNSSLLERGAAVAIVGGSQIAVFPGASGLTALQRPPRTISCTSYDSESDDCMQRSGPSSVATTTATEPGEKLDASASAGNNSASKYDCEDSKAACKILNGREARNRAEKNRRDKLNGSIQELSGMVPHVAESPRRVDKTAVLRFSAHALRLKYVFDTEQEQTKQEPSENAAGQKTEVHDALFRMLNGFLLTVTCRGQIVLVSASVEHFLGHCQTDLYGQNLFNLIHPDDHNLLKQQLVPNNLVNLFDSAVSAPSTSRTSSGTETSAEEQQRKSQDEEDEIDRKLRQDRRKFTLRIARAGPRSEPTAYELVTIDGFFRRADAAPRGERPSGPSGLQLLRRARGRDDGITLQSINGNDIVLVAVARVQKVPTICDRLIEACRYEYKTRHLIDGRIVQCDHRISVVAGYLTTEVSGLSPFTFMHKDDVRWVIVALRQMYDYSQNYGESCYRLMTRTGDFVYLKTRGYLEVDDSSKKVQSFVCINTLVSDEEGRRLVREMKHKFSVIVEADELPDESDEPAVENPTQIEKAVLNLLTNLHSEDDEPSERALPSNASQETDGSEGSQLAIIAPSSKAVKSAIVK

GST-AaMet (bHLH-PAS) = molecular target: T2, GST-AaMet (bHLH-PAS) (Aedes aegypti, UniProt Q58FS0 1-597); experiment: EMSA
T2 sequence: T1 sequence (Q58FS0 1-597)

fold enhancement of two-hybrid reporter activation with JH-III [1]: > 20 fold
Molecule: bHLH-PAS domain of AaFISC fused to the activation domain of GAL4 (domain or fragment)

Molecule: COC(=O)/C=C(\C)CC/C=C(\C)CC[C@H]1OC1(C)C [JH-III]
Kd [2]: 4.4 ± 1.9 nM

B1: AaET_JHRE1 (dsDNA)
DNA 1: CCATCCCACACGCGAAGACGATAAAACCA
DNA 2: TGGTTTTATCGTCTTCGCGTGTGGGATGG
binding result (GST-AaMet (bHLH-PAS)): no binding

Reference: PMC4163509 (Molecular and cellular endocrinology, 2014)
